The text below walks through data of the domain aggregation screens of Martell et al. (2025).

This series can be described thus: soluble fraction after stress (log2 fold change); higher = more stays soluble; pooled small domains, quantitative proteomics. As to conditions: stress: pH 4. A digest of the protocol:
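Following acid stress at pH 4, the amount of each small protein domain still soluble was measured in pooled custom libraries by high-throughput quantitative proteomics. Its fold change, on a log2 scale, is higher when more of the domain stayed soluble. This fold change is taken as a measure of aggregation propensity.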

Bounds are passed on as bounds.

As for “HMEFLDLEIDVDATDGRLLAFLAAKGEVVSQTFNDTIITVRVRMPTGAMGQVHRSALAIRPA”, the “soluble fraction (log2)” value was -1.43.

For the sequence “HMEFLDQAFLHETMRKVNQDATINLLKKVYEVPQKFIGRKVTVQYDPEDLSRVYVKDLSFPEPVTVYPV”, the “soluble fraction (log2)” value was 0.12.

“HMEFNDLNDDEKAILHIMYNTGEKMTTALAARITNRGRNFASKLLKSLVKKEILEWHGTSKQDRNQYYTLA”: the “soluble fraction (log2)” value was -0.337.

For the sequence “HMEFQVKVIVSSLNIRSGPGTSYDTLGTVTKGDIFTIVETNSDSTWGKMQSGGWISIKDAYVKK”, the “soluble fraction (log2)” value was -0.216.

In the case of “HMEFTFTLPRGYIDDTGMIHREGTMRLANAADEILPLKDPRVQQNPGYLTIILLARVITKLGSL”, the “soluble fraction (log2)” value is -0.165.

In the case of “HMEFTKSPLDEIAGVGPARKRALLAAFGTAKAVSQAALADLEKTPGVNAATARLVYAHFHEK”, the “soluble fraction (log2)” value is 0.22.

In the case of “HMEFTVFMNSAGGSKLQVVKTVKELTGLGLKEAKAIVDGSPGPVKEGLSKADAEAMLAKLQEAGADVEL”, the “soluble fraction (log2)” value is -0.117.

For “HMEFYYSDLVGMIVYDTGGNELGKVQAVLNHGAGDLLEIHGVNLKTSILIPFTKEAVPTVDIAARRIVTDP”, the “soluble fraction (log2)” value is 0.00543.

Turning to “HMEGAEDMNRALALAFLRDNSRSTVAQLAEHLGSSKRSAERLVAQLKDEGVLERQGSPRAGLWIVHI”, the “soluble fraction (log2)” value is 0.221.

As to “HMEGEVVESPLVGVAYLASGPDKPAFVQVGDSVSKGQTLLIIEAMKVMNEVPAPRDGIVTEILV”, the “soluble fraction (log2)” value is -0.279.

For the sequence “HMEGFSAGQFVRASVDNTAFYLKRPKGDAVADKLLRRGASMKVISASGDYLKVELDSGEVGFVPPVMVE”, the “soluble fraction (log2)” value was 0.0892.

Consider “HMEGIWAVFYDGKPINLKSSSLVANYPGPKYKKVSFSNPGHAENLAKKLNAQHNTDKFGVYLLKSGDKFS”, for which the “soluble fraction (log2)” value came to 0.219.

In the case of “HMEGMSIYVTVNGDMVHLTGKMSYVFVDVFEHIDFDLSKPQGSGIVTKLNGRDAQYMEEIRSGDMIEIYWR”, the “soluble fraction (log2)” value is -0.669.

As to “HMEGNLVEIFEDAFGRTMSTMDIEYINQFKRTGYDDEMIVSALREAVKSNALSFRYIERVLENWAHS”, the “soluble fraction (log2)” value is -1.83.

With “HMEGTEVTTEPPGAQIEFDGKQFGPTPTRVPGLAAGKQFRITLAGYQEAKPKLKNNPKEGEPLSFTLTAI”, the “soluble fraction (log2)” value worked out at 0.264.

In the case of “HMEGTVQQDKFDAYKAKFEDAISNDLNTSMAITIIYDLLKDDMNDKTKLALINDFDKVLSLNLTTA”, the “soluble fraction (log2)” value was -1.17.

Regarding “HMEGVTVPDVTRISLDEAEELLTSYGLRFEVADRRANSAFPGNYVIDQAPSAEVIVKPNRKIYLTVNAA”, the “soluble fraction (log2)” value is -0.188.

Consider “HMEHDTVLSKVFRRLREAHVPLSLDDIYQGLRKTVNNNSEIREKIVTLQERGLVAEILGPKGGKKYVAKPT”, for which the “soluble fraction (log2)” value was found to be 0.199.

As to “HMEHIEVDTSHIAVGSKVKHKAFGLGEITDKGNTYVFVKFDGQAIPKKFQFPGAFTQGFLTK”, the “soluble fraction (log2)” value came to 0.154.

In the case of “HMEHPNNTELTQKLELGTELMQYGDYNYALKVFNNVIDSDPEWSEAWNKRATVYFLMSQFTDSLSDIDRV”, the “soluble fraction (log2)” value is -0.17.

As for “HMEIDMQEGIKTIILMMKEHNITPSEAMKIYKSANGDIHYISKIYNHFKNKGADNFVALMIKMVKPGEFIE”, the “soluble fraction (log2)” value was -0.398.

For the sequence “HMEIEETKKNSRTKIPENFDYKLINGLSNEIRAKLELIRPIDLLQASRIDGMTPAALTLVHLWIKKYSG”, the “soluble fraction (log2)” value was -0.419.

For “HMEIEIPEELQNKFAEIPELKTAFESLTPGRQRAYVLYFSQPKQSKTREARIEKYIPHILDGKGMN”, the “soluble fraction (log2)” value turned out to be 0.0591.

In the case of “HMEIESAHAQVLGVREIAASGATQHWIAFRFSDGHQRELLATPSQADVIFRGQQGVVHFAGDRLTGWIPE”, the “soluble fraction (log2)” value was -0.198.

For the sequence “HMEIEYFDDEELDAYKGRKSDSYTDEEAAQFAEVLYTMRPSEVKDWTASLTLRGISMPDQIKDEAIMLME”, the “soluble fraction (log2)” value was -0.984.

Consider “HMEIGELITLYRKQAGLTIDELSEKANVPKGTLNKIIGGITKAPTLETMRSIAYALGKKLADFDN”, for which the “soluble fraction (log2)” value worked out at 0.107.

Consider “HMEIHQVEFGGKVISFVLERKPVKNVNLHIKPDMTVMVSANEKVPLDFILGFVKQKAAWILKNIQFFEDV”, for which the “soluble fraction (log2)” value was -1.08.

Take “HMEIKDQADAYGKMEPASAAAILSEMTNDLTLVAKILDSMQTSKSALILQNMKPTTAAQVTTKMTAMK”: the “soluble fraction (log2)” value was -0.11.

As to “HMEILTRQLTHYLHLLPPAQQEVVRGVYLQDQTLQEIADRVQIPLGTVKSRLRLGLSKLREQIEQEHE”, the “soluble fraction (log2)” value is 0.291.

On to “HMEIMELPEYVVRSGSGLDAFREKWDLWDQGLMYDLKDKRAVFPIFIDGVMIDAVGRALAGAEPKWLRYTG”, for which the “soluble fraction (log2)” value was -0.554.

“HMEINEDEIYEKIMIEIEQDNKVKSTWAKALSQSDGNKDKAESLYISMRFEELKYHQSYQKEELNLKDNQQ”: the “soluble fraction (log2)” value is -0.989.

For “HMEIPRYRLIGADGGRMVDLGEGQGAIPPVDVKRGMIDMPGLGKGYYTADGKSAVITNADGSKTRVL”, the “soluble fraction (log2)” value stood at 0.304.

On to “HMEIRNLMPILSHFLNENDIKLSRESVNLVLDRASGNRENLNNELKKIHDYSFSNKIIDFETIKKLTNLG”, for which the “soluble fraction (log2)” value was -0.215.

“HMEISLAETLRSSLHMILGWYQNTGDKKLLELIRLHLQAYVNTGNSLNPEMEEIRAALETLGEGKEAFRP”: the “soluble fraction (log2)” value is -1.02.

As for “HMEISNWLEEIGLSRYTETLSEFPLEDLVEFTDDDFKELGVLTPHRKKLLAAIATLNNDASSN”, the “soluble fraction (log2)” value is -1.12.

“HMEISTEVPLRGGTISEEALEALNRLPGVTASNIDGKSISVDVADNAELRVSDINQVLAVHSPDTRV”: the “soluble fraction (log2)” value was -0.707.

With “HMEITRDTVIQWLEAERRSQTWLSKQLGVSVQAVSNWLREKNPQTISASAQITIRALMEEDAAK”, the “soluble fraction (log2)” value stood at 0.00665.

On to “HMEIVQVIAQNIQDLLDKHKISVSELSGYLGISRQTLTNYLKTTSTIDSVQLVKIADFFNIPAEYLLKDH”, for which the “soluble fraction (log2)” value was -0.659.

In the case of “HMEIVSTEEKIKRAAEQVFLLRGLEGARMQEIADVAGINKAMLHYYFRNKETLFDVILSEKL”, the “soluble fraction (log2)” value is -1.14.

As to “HMEIYEEDRTKVVNDLMDQILNRQITMDAAATKFINIRNSLGTTITKEDEQNLEMLRGLIFDKT”, the “soluble fraction (log2)” value was -1.17.

In the case of “HMEIYIDGNKYVGELRNGKPNGRGTITYTGDGSKYVGEWKNGKRYGRGKMAYTNGTTKEGVWKDDEFLYAT”, the “soluble fraction (log2)” value was 0.377.

As to “HMEKAKVPSVIGMTEANAKRTIRDAGFKVGRVTRVESEAYDKGKVIEQQYEAGSELEKKKPISIVVSKGKK”, the “soluble fraction (log2)” value worked out at 0.152.

Consider “HMEKALEVKYQKMVELLGDQSTFYVDEVKKIFPEMKKSSLYWNMSKLVEGGYLRRIRNGVYAFNE”, for which the “soluble fraction (log2)” value was -0.124.

With “HMEKEKIKEALIGYFEAEPEEKFTVQELADKLKMNKAGQFNFVVQAVAQLEHDKVITLDDEGNFSLVRHE”, the “soluble fraction (log2)” value is -0.967.

Consider “HMEKERYDTGIGELNRVLGGGLVKGSLILISGDPGIGKSTLLLQTANNISKKYGKVLYVSGEESEEQIKIR”, for which the “soluble fraction (log2)” value was -0.722.

On to “HMEKGWYKLGQDSYYVDDDGKIHKGWLELDGKKYYFDQEGKMVTGTVNIDGKDYTFNEKGELYVS”, for which the “soluble fraction (log2)” value was -0.029.

With “HMEKIELKTVIPENLKKKRLDFALSELFPEHSRSRIQSWIKEGSVMVNSKNYRQRDLVDAGDVVEINTEQK”, the “soluble fraction (log2)” value worked out at 0.321.

Turning to “HMEKIIGQIQINQRGNGYVIVPNVKDDIFVKRENLNSARQGDRVAVQLLSRPNQKPEGLVQEVLERGQ”, the “soluble fraction (log2)” value amounted to 0.071.

With “HMEKILSYKALMNDAGKRIDQFLANNEKDISRTRIKSLILEGSLKLDNNIINDPSYKIKENDVFTLFIPEA”, the “soluble fraction (log2)” value was 0.0775.

As for “HMEKIRIQKYLSERGVMSRRAADSALAEGRIAVNGVTARPGDKIDPSSDTLTIDGRIVTTGTAP”, the “soluble fraction (log2)” value was no less than 0.43.

Regarding “HMEKKEWVIYITGAVKKPGVYRIPEGARVYQALEAAGGFTPEADRDAVNLAAMLQDGAHIKFPAVGEEV”, the “soluble fraction (log2)” value came to 0.0865.

As to “HMEKLNYSISNEEQGQRIDKYLSLMIEGKSRSFIQGLIDDKKVMANGKVIKSNYKLKNNDEITVEMPDPI”, the “soluble fraction (log2)” value amounted to 0.0918.

For “HMEKNILPDTSPEKQYEFATSFLKVGDYSTAERAFREFVINNSEHKLAGNAQYWYAETFRIRQ”, the “soluble fraction (log2)” value stood at 0.148.

Regarding “HMEKSQIHLIHTRYVNPEQLVPILSMVIPAENIYVKSDSNLIIINGSSEMLREVESIVSKLDVPS”, the “soluble fraction (log2)” value was -0.687.

Take “HMEKSSALRAKEAFMALYHDGKFKPGTKIPSESNMAELLGVSRETWRKALALLRGDGVLYSKHGSGTYLLE”: the “soluble fraction (log2)” value is -0.0262.

“HMEKTKLPNLVDFTYRQAEALLQTHGLKVGKVERVPDVGQTVIKAKYKGKVISWGTELNKGEKIDLVIGKG”: the “soluble fraction (log2)” value is 0.13.

Turning to “HMELADLPSAQIREILAYVYRAPLEKRRDPSIHWLLIAAHKLTLPLLDRLDPADARALGERYGADYP”, the “soluble fraction (log2)” value was -0.644.

Regarding “HMELARLRPELDGNDIMRILGVPPGPVVGRAYTYLLELRINQGELGRERVTQLLLDWAAAEGISA”, the “soluble fraction (log2)” value was -1.8.

With “HMELDMTFGEKIQKLRKESGLSQEELSYQLGVSRQAISKWERDSGYPETEKIVRMSKIFDVTLDYLLNE”, the “soluble fraction (log2)” value is -1.06.

“HMELEDTYTKNLDASLARLDEYQASKGLTDEQVDEVINSLIADAENIIMGVFTPELIDSKLKAMNYDQDV”: the “soluble fraction (log2)” value was -0.17.

Turning to “HMELEFLTEKQKEALILAVNRGYYDVDSEVTLKRLADELGIARSTYGEHLKRAESEALKMVVSDLLRD”, the “soluble fraction (log2)” value was -1.03.

Take “HMELEIPGELIEAVRRLRDERQRMRLAGELAARQIQMHPERYTEASIDPVQTWDELRARILALA”: the “soluble fraction (log2)” value was -0.582.

As for “HMELLSGTVEKVLTSGVLVKLPGGAIGFIPNSEMGTPRGTNHGKMFPAGTPLQVMVVEVNQDRGRITLSR”, the “soluble fraction (log2)” value is -0.389.

In the case of “HMELLTNPLTGREVEVLTLMALGQTNHEIARQLYLATGTVKAHTSSIYRKLDVANRTEAVARARQLGIL”, the “soluble fraction (log2)” value is -0.448.

“HMELLTYREMDVLNLLDQRLTNKEIAHALGISTETVRQHTVNLFRKLNVDNRRQAIVVARSLGYIGTPT”: the “soluble fraction (log2)” value is -0.894.

In the case of “HMELNESVLKALYEKFREMSGSKGFITEDEVIIQLEKENPDITPDQQAEIFKYLYDTPLQIY”, the “soluble fraction (log2)” value was -0.996.

As to “HMELNFEGFYRFVRDELNVDLNAYKEKQLKRRIATVMKSSGALTLEDYSRLIANDEVIRNKFLDYITI”, the “soluble fraction (log2)” value is -0.894.

In the case of “HMELPMGTQLPPERELAQQMQVSRAVVNGGLAELAQQGFLEVRPRQGTFVADYRRKGNLSTLIAIMEY”, the “soluble fraction (log2)” value is 0.22.
